The results in this text go back to publication PMC4183369.

Bounds are passed on as bounds.

The target in the test is gp59(C42)-Cy3, helicase loader protein of the T4 bacteriophage DNA replisome (bacteriophage T4) (UniProt P13342). The experiment in a line: FRET or BRET.
Sequence of UniProt P13342 (P13342 whole entry): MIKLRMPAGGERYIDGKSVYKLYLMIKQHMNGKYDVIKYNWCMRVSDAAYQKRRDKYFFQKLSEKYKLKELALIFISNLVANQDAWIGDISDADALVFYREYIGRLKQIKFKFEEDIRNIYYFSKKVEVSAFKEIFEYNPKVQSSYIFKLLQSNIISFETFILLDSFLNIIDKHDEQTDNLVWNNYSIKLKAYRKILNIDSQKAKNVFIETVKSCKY

As for “Cy5-N-gp43(exo-), T4 gp43 polymerase (from UniProt P04415 1-898) (enzyme)”, the duration of a single FRET event is greater than 80 s.
